The record followed here is IntAct's records for PubMed 21217703.

B1: Telomeric repeat-binding factor 2 (Homo sapiens), Q15554 (parent)
chain: MAAGAGTAGPASGPGVVRDPAASQPRKRPGREGGEGARRSDTMAGGGGSSDGSGRAAGRRASRSSGRARRGRHEPGLGGPAERGAGEARLEEAVNRWVLKFYFHEALRAFRGSRYGDFRQIRDIMQALLVRPLGKEHTVSRLLRVMQCLSRIEEGENLDCSFDMEAELTPLESAINVLEMIKTEFTLTEAVVESSRKLVKEAAVIICIKNKEFEKASKILKKHMSKDPTTQKLRNDLLNIIREKNLAHPVIQNFSYETFQQKMLRFLESHLDDAEPYLLTMAKKALKSESAASSTGKEDKQPAPGPVEKPPREPARQLRNPPTTIGMMTLKAAFKTLSGAQDSEAAFAKLDQKDLVLPTQALPASPALKNKRPRKDENESSAPADGEGGSELQPKNKRMTISRLVLEEDSQSTEPSAGLNSSQEAASAPPSKPTVLNQPLPGEKNPKVPKGKWNSSNGVEEKETWVEEDELFQVQAAPDEDSTTNITKKQKWTVEESEWVKAGVQKYGEGNWAAISKNYPFVNRTAVMIKDRWRTMKRLGMN
partner: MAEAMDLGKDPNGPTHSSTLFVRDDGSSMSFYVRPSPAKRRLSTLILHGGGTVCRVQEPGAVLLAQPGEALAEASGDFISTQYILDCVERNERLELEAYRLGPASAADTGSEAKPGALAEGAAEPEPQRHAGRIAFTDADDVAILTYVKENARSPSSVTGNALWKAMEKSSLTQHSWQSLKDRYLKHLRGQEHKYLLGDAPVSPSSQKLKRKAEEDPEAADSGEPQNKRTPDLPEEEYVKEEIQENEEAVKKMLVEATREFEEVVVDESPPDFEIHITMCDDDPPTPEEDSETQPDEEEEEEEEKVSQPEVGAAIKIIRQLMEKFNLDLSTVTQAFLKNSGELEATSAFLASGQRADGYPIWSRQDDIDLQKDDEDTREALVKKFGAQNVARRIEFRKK
B2: DNA-binding protein RAP1 (Saccharomyces cerevisiae), P11938 (parent)
chain: MSSPDDFETAPAEYVDALDPSMVVVDSGSAAVTAPSDSAAEVKANQNEENTGATAAETSEKVDQTEVEKKDDDDTTEVGVTTTTPSIADTAATANIASTSGASVTEPTTDDTAADEKKEQVSGPPLSNMKFYLNRDADAHDSLNDIDQLARLIRANGGEVLDSKPRESKENVFIVSPYNHTNLPTVTPTYIKACCQSNSLLNMENYLVPYDNFREVVDSRLQEESHSNGVDNSNSNSDNKDSIRPKTEIISTNTNGATEDSTSEKVMVDAEQQARLQEQAQLLRQHVSSTASITSGGHNDLVQIEQPQKDTSNNNNSNVNDEDNDLLTQDNNPQTADEGNASFQAQRSMISRGALPSHNKASFTDEEDEFILDVVRKNPTRRTTHTLYDEISHYVPNHTGNSIRHRFRVYLSKRLEYVYEVDKFGKLVRDDDGNLIKTKVLPPSIKRKFSADEDYTLAIAVKKQFYRDLFQIDPDTGRSLITDEDTPTAIARRNMTMDPNHVPGSEPNFAAYRTQSRRGPIAREFFKHFAEEHAAHTENAWRDRFRKFLLAYGIDDYISYYEAEKAQNREPEPMKNLTNRPKRPGVPTPGNYNSAAKRARNYSSQRNVQPTANAASANAAAAAAAAASNSYAIPENELLDEDTMNFISSLKNDLSNISNSLPFEYPHEIAEAIRSDFSNEDIYDNIDPDTISFPPKIATTDLFLPLFFHFGSTRQFMDKLHEVISGDYEPSQAEKLVQDLCDETGIRKNFSTSILTCLSGDLMVFPRYFLNMFKDNVNPPPNVPGIWTHDDDESLKSNDQEQIRKLVKKHGTGRMEMRKRFFEKDLL
B3: DNA-binding protein rap1 (Schizosaccharomyces pombe (strain ATCC 38366 / 972)), Q96TL7 (parent)
chain: MSFTFTKSDGSSILFAVSKNFEHIRGFKNAIDCFKGKIEFLSFDKVDPTKHDYYLVAEDERVSDLDIPKGFFERNPEFRHKMLKIAWITQCIEQGKLLPTESFEVELNQDDVNRTHDGFRKRELFTLEDEKILIDHVHKNDINRFGTKVYEELARKYPQHSLESWRQHYKYMKKRLPPVSDSDESNYCQRIIVKPYSSQKDYTQSTHEQTLSSPISKSASVSKSENKALVNNKRYSDSYFYFSKMRRISIDVDYVDEDLNLINAYLSQFGKKRSLNELCALLSRRFSNRHTFSEWRALFMHFFPFINSEGVDPAILSDRETSAMLDETSDNEVADIDDQMIERKYLFSASEPNTVKSTNRLIFSERKAYAADDSIDNTPSKVPIVNSLSDPRTNRPFFYSNPDSMYRSISNPLHLVDSQHLSPLNRKTHFNNPIGQPQFTCLDDHEKTLRETSFRSLDDMSLRKSNSDNIFVKPGEDLEIPLLSDYSDSENISEKSSDDEEAFEKQVTSSYSSPIKVKSQGKSSKGSSGLDVREHEGSDDDAEVFVDRSPESFGATKVAHTSLEGNAASHKKVEENMQQPVTKKQKKYRMVNEEAHTGPTIIIPSDNNEKVTTLPAGHVPSEEKGKFINLAMHELQNEVSILRSSVNHREVDEAIDNILRYTNSTEQQFLEAMESTGGRVRIAIAKLLSKQTS
partner: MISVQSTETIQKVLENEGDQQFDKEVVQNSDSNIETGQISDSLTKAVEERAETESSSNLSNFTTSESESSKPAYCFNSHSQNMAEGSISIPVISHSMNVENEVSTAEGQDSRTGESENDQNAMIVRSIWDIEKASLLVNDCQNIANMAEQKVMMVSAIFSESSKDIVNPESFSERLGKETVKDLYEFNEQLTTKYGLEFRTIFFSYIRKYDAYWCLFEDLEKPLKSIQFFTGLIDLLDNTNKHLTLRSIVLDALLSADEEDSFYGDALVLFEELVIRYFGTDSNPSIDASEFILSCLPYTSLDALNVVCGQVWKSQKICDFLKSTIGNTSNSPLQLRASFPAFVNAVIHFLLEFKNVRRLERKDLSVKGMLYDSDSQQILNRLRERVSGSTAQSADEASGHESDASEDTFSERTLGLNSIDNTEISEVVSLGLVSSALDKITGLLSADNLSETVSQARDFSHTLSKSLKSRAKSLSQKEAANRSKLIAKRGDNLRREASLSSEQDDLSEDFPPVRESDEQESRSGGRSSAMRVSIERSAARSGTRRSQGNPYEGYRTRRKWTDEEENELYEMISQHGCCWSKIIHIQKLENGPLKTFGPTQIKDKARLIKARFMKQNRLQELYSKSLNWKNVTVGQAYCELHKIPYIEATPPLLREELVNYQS
B4: Telomere length regulator taz1 (Schizosaccharomyces pombe (strain ATCC 38366 / 972)), P79005 (parent)
chain: B3 partner
partner: B3 chain
B5: Telomeric repeat-binding factor 2-interacting protein 1 (Homo sapiens), Q9NYB0 (parent)
chain: B1 partner

One assay covers variants of B1. To be noted: with te2ip_human TERF2IP.
For the variant L330R, the “effect of a mutation on the interaction” value was “disrupting interaction strength”. In the case of L330E, the “effect of a mutation on the interaction” value was “disrupting interaction strength”.

Variants of B2 are the subject of a further assay. To be noted: with sir3_yeast SIR3, P06701.
Sequence of sir3_yeast SIR3, P06701 (P06701 whole entry): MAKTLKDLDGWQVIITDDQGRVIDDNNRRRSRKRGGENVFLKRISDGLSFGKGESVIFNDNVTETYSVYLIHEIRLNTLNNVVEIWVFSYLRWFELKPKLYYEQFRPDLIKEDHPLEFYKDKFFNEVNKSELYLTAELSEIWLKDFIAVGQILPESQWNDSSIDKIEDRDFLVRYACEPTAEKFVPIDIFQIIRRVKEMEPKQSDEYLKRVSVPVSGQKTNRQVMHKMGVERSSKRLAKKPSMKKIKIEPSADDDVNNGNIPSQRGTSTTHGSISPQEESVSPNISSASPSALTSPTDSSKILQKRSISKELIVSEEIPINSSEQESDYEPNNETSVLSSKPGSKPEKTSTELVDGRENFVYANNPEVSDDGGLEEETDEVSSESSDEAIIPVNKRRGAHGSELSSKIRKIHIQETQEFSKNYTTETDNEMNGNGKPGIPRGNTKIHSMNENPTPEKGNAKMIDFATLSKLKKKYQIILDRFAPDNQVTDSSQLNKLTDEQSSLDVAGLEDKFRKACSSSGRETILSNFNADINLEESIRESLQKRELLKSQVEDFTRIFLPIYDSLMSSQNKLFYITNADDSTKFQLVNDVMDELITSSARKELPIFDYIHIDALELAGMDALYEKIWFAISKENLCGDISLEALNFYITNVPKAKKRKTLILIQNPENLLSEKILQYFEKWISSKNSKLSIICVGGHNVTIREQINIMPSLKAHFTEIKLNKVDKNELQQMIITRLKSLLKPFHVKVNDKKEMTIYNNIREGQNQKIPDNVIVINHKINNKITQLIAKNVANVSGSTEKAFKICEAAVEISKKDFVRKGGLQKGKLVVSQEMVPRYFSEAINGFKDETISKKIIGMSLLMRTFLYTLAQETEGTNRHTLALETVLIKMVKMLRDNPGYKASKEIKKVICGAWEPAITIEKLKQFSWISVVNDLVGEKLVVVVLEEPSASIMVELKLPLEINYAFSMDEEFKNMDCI
Regarding L755R, the “effect of a mutation on the interaction” value is “disrupting interaction”.

In the case of G760R, the “effect of a mutation on the interaction” value was “disrupting interaction”. Regarding P730R, the “effect of a mutation on the interaction” value is listed as “decreasing interaction”. Consider V737R, for which the “effect of a mutation on the interaction” value is listed as “disrupting interaction”. Take A733R: the “effect of a mutation on the interaction” value is “disrupting interaction”.

The variants in another assay derive from B3. To be noted: with taz1_schpo taz1, P79005.
For the variant I655R, the “effect of a mutation on the interaction” value is “disrupting interaction”. On to V651R, for which the “effect of a mutation on the interaction” value is “decreasing interaction”.

The variants in another assay derive from B4. To be noted: with rap1_schpo rap1, Q96TL7.
On to R384E, for which the “effect of a mutation on the interaction” value is “decreasing interaction”. Turning to L380R, the “effect of a mutation on the interaction” value is “decreasing interaction”. As for L383R, the “effect of a mutation on the interaction” value was “disrupting interaction”.

For the variant L383A, the “effect of a mutation on the interaction” value is recorded as “disrupting interaction”. With I379A, the “effect of a mutation on the interaction” value was “disrupting interaction strength”.

Take I379R: the “effect of a mutation on the interaction” value is “disrupting interaction strength”.

On to R386E, for which the “effect of a mutation on the interaction” value is reported as “disrupting interaction”.

In a further assay the parent is B4. The conditions noted are these: with rap1_schpo rap1, Q96TL7. The source holds these as a separate data set.
Take I379R: the “effect of a mutation on the interaction” value is recorded as “disrupting interaction”. As to V387R, the “effect of a mutation on the interaction” value was “decreasing interaction”.

Variants of B5 are the subject of a further assay. To be noted: with terf2_human TERF2, Q15554.
For the variant I318R, the “effect of a mutation on the interaction” value is “disrupting interaction”. Take F336R: the “effect of a mutation on the interaction” value is on record as “disrupting interaction”.
